The values below come from a protein production outcome set (Wang et al. 2014).

The nature of this data set: label from the status in PepcDB records.
With “MIQLRPCPKSYTRDQDKATTPAETVRRVRERLASLDISILAETRRVDVGRLGIPVFLSVCGADARAVMPTRKQMGKGASLEQAQASALMELMERYSFFTFWRDMPGMVEATWSEARNRFGDALIPVDEILHSVHDTLSPDDAVRALDLWRWKFFPATDITHGREVWLPLDWFKKLGEFNGSSAGNTEEESILQGSCELVERHVCCLIDRTQPELPTIDPASLDDPVLLELAAAFERNGIRLVLKDFSMGMPVPTVGAIAWDPATFPERSEIVYTAGTSSSPVKAAIRAVTEVAQLAGDFCTGACYEASGLSKYESLDDIAWLVAGPVVALDTLPSVETDDIRDELAALCDGLAATGHTLYSVSTMNPDVGVNTHYNIVPGFHFRERDRNASLGLFIGRILSEEADAGTALAGLSVLEELYPGAHFLPFFKGMLALRAESHHEAISFFEQAEPLQPEADSRGLAAFYGAYVRTLLTDWQGALPGLDRAVTECPEMKEYFNLRGVCHFKLGDYAQAAQNFAQVLHIDKGAVVDLANLGLCHKFMGDTEKAEELLSAALEIDPGLDFARRHLDEMRQP”, the protein production result was “failed”.
The same measure for “MIQMSSNDSSEVIRQCLQVLESITSDSSVPRNIRRSVNEIMDILNNESEPLFLRAASSISILEDISNDPNLPLHTRTLIWNLSSQLETIPVDE”: “failed”; for “MIQTFFDFPVYFKFFIGLFALVNPVGIIPVFISMTSYQTAAARNKTNLTANLSVAIILWISLFLGDTILQLFGISIDSFRIAGGILVVTIAMSMISGKLGEDKQNKQEKSETAVRESIGVVPLALPLMAGPGAISSTIVWGTRYHSISYLFGFFVAIALFALCCWGLFRMAPWLVRVLRQTGINVITRIMGLLLMALGIEFIVTGIKGIFPGLLN”: “failed”; for “MIRAYKFLLRPTVRQAQALAEMLRDHCSLYNAALQERRDAWRHPSKTTVKYGGQSAQLKDIRAFDPERQGRWSFSSQQATLRRLDKAFAAFFRRVKSGETPGYPRFRGVNWFDTVDFPKDGDGCRWNSTPHDPATRVRLQGVGHVKVNQHRPVAGRVKTVSVKREGRKWFVVLTAEQDQPEPLPATGSAAGIDLGIANFLADSGGGFVPNPRHGRRAADKLQAAQQALARFPRRKAKDRTANHRRAVGKVAQLHGKVRRQRLDHAHKTALGLVRAHDFIAHEDLRIRNMSKAPAPKPDPDKPGTFLPNGAAAKAGLNKSINDAGWGVFLTILHAKAESAGREVIAVDPRDTSRTCPECGHTAKENRPTQEKFHCVACGHHAHADTVAATNVLRAGLVRRNANPA”: “failed”.
For the sequence “MIRDVNDNKKKKVDEILSIVKVSSLLFSAMAFLQYTFNLTKYNNKFLAYYSILSILISIFLLSTIYILWSLASLNKYKDHINKIQLIEIILFMIIFIMAILVSGGNSSNNKFLFLFIIITSTIQGGMHRGCVVSVVSSAIILAIDLIFSGNADVNIYFQNDLILAGVFVLTAWTLGFYVKTENDHIKELQTLVNEDGLTGVYNHRYFYDKLREKMHISEVENEKLSLIFMDIDYFKHYNDLYGHQKGDEALKKIGKLLKNIARENDLVARYGGEEFAIILPNTSEEEATKIAERIRNKVEKTYFEGQENQPNANFTVSVGIAVFPDKAKSELELVKCADDALYRAKFFHKNRVETYVSVLDELKRDLNEEENALVASIKTLISIINAKDKYTYSHVERVVIYSRLMAKKLGLSEDEKKQLIYGAYMHDIGKINIPNEILTKKMRLTKEEWEILKQHPKDGVEIIKSVNSLKNVVPLILYHHERYDGFGYPVGLKEKEIPYLARVLTVIDSFDAMTSSRPYNKRKTYDEGLIELERCSGTQFDPEIVGIFSEVVKENINEIQDF”, the protein production result is “failed”.
In the case of “MIRERSINLGHQVEGAIFTRHNHIVSVDGDGILSFQNNITKVKPNEAIFIPSKVMVRFSFNSNENKSIKVSLYHINGINLNCKQDKVTSLINAYIEVEKLNLTNRETIIELIGSRLEKIKNNRVLYNYDPLEKKIYRLVSKDLKKKWSLEEVCKLTYTSKSTLNRKLKDNQTSMGQIISNARLDYATILITNTSLSVDEISMLSGFNSTSYFCKKFKESHGFSPKQYRKLLAYNQVPLNRI”, the protein production result was “failed”.
“MIRHLLVAHDLTPEADVALARAAQLARQHDARVSLLHVYDPGLSASAVKTVSAMLQLKRKEAGLDEDSAIHLFRGQPIDGILQQTRALEPDLLLMGAHHQKTFERFGNTTLDQVVRRSRVPVLLAVREADEPYRQALSALDFSQCACTALRQAYRLLPVEADLHALHVFESPDDGVLGLPRQNAAHLATQAGLIEQLLSDEQERLPGVGPQLSHEVVPGVLPYSLDAALKQRQPELLALGRHSRNALMQALLGNLAQRYLRQPSCDVLVTS”: the protein production entry is on record as “failed”.
Consider “MIRHTVVFTLKHASHSLEEKRFLVDAKKILSAIRGVTHFEQLRQISPKIDYHFGFSMEFADQAAYTRYNDHPDHVAFVRDRWVPEVEKFLEIDYVPLGSVV”, for which the protein production entry is on record as “not failed”.
As to “MIRIGNLYVYLKNYIMKFTKLTIAFLSVFFCLVVACGSDGINDDPKTPDVTEPVTPNEPDEPDNPSVVKVPTLQKNVQDEWKIDSIDDGFIYYNYERYDDVSKAQQIVNVLEIDLLSNKYKVEFTYNNGDSLSTTAQVRGAIGGINGGYEQEAIYIRINGTNISEVTLPEGHLRYWKHDGALYSDGKSDIGIIYGGRNGKAAIDTYKQHSAKYLLASAPTLIDDYNPLGETFVGNYTMEQLESFDYEDYRRHQGVRHPRTVVAVTEDKDLLLVTIDGRWAGKAEGMSAKEVTLFLKKHFNPQYALNMDGGGSTTMYVKGKGAAKTDVVNYPTDNGVFNHYGQRRVTTHIIVKRK”, the protein production entry is “failed”.
With “MIRLILILINILFCHYLYALDCQKRLFDISINEKLSIQESLDELAKYCSFSIIVKDKIAKEKLETLQNSVNIHQMSLDEIFNFFIKEHDLSYDFDGKILRISGINTKIFKISYITSIREGQSITKASVDAKPRQSEYSGSFDDAEDNMIKSMEKFDFWQNIEKEIIVLLKNSHEDYEAKTPIINPNAGLIIVTGTNSQLKSVKNYLQKLENRLKKQVIIDVSILAVSLNESHSSGINWQNFNIGLNSQVNNENSFIQFQNGQGFVKNLGLRANLNFDSIINFLSQNGKTSVLSNPKLMALNNQQAIISVGDTINYQVKESSKGTENGTTVSESYNNYSIFVGILLNILPEISDDGKIMLRINPSLSDFKYPEDNKRQKEPRTIAPDTIQKKLSSVVQVENNQTLILGGLISHDKSNEKNSINFLSKIPILGSLFKGEVLNSKATEIVFIITPSIVDSVNAPSLKDLGFKHYELEHHHHHH”, the protein production result is “failed”.
For “MIRPARHIAAMSPYALAQLKAPAGKRLISLSQNESLRPPSRRAIEAAARAGDAGHLYPDPDWSALRAALSGLHGIPVEGILCGNGSMELIACLAQAFADERNAILAPAHGYPFFRSAAQMARARFDLAAERDRHVCVDAMLAAVQPDTRIVFVANPGNPTGTRIPRHELVRLREGLPDDTLLVIDEAYGEFADHLGEAMFDLVGRCDTVVLRTFSKAYGLAGMRVGWGLFPPEIARELRKVMNPNNIAVAGQLAATAALADQDYMVETCRQTAALRDGLRARLSKAGYDVPESFSNFVLIRMESPDDARRADEALRAEGVFLRPQGGVGLADSLRVTIGPAEKIDIAAGLLERWAEGKKT” the value was “failed”; for “MIRQKSIRRVKPPEDYQARLATPFAVLGLRTDEDWLTDIEYLPPDTPTLVPQTPLAREVCDQLQAYLADPGFVFDLSLHIGGTVHQRRVWQAIQDIPAGATRSYAAIAVELHSAPRAVGQACGANRLPIVIPCHRVIAKSGGLGGFMNASDGLPLTIKRWLLQHEGI”, “failed”.
With “MIRQLSLKDYEGVAGSALIDEIRSLGESLQGYNVRHINSTIIGGGVAEILSSLVPLMEDVGLTVNWEVLAGTTEFFHTTKLFHNGMHGQPVNITGEMLENYLAIAQKNQNLLDGDADLVVIHDQQPLGLTAFRGRTRGRWLWYCHVDPRYAVPEVWYFLAPMVATCDAAVFHLPEYARDLEHHHHHH”, the protein production entry is “failed”.
For the sequence “MIRYLALLALLAAPWVQAADALHDDLPLKYLEQAPAEPRNQPLVIFLHGYGSNEADLFGLRQRLPASYTYVSVRAPQTLEEGSYQWFHRKGQGPYDGVTSELASGAELIGQFVRAALAKYQTQPDKVVLVGFSQGAVMAYEVGLRHPQSVRGIAALSGKILPVLAAQVKNNPSLQRLGIFIGHGTLDQRLPYSDAVDAQRLLQGLSLQPQFHAYPGLGHSISEAEIDDLKGWLQGLNP”, the protein production entry is recorded as “failed”.
Take “MISANDLSPAELAALLHFHADAGVEWLLEEEAIDRFAEFEAMKAARRPAAQAQQQRPAAGERPAPGQAQVRPNAAVRPAPAERAASGPQPAIPDGEAVQQARFVAETARSLVELKTAIESFNGCNLKHSARSTIFASGDAESGIMVIGSAPSAEDDREGMPFSGKSGQLFDKMLAAIGLTRSAILLTQVIPWRPPGNRAPSAAEMDICRPFIERQIALAEPKAILLLGNFSARFFFGENDTIHGLRGRWKEIAAADCVIPAIASLHPQDLLTAPVNKRLAWNDLLAFQAKLKSLSLLRN”: the protein production result is on record as “failed”.
The same measure for “MISKFIEKRMLNMLDEWYSAMSKRKMNHVCTLKEKIDQHLPKIKKNTKLWMRYQLFQARHQLLFENQNGLDSLFDGLYGLEDKMDDELKYYLYFFSGLYEMVKTAPKHAVHHFKKAEQYLAAIHNTFEAADLYYQTAGAYYLMKSPPLSVQYVKKALHIYLHQFGYIKKVITCKLLLAVNYIDQERYEKAEQLFKEIIKKTQQLHDENLLCHAYYNLGFLKATEKKDQEALLYFRKVLKNQEFEMNSPVSYLHCVYESVRALFKTGNITEAKAVLQKGKELSEKVDIQTIYLKLKTLEALYTSAEDPYEQLLEYVLELEKIEAWVDLEVLLEDITEYYKKKDDFEKAAFFIMRG”: “failed”; for “MISNEEMKSGNILNLFCKFALPAVVGVLIAGIQGIIDGFFIGNAIGSHGLAGITLAYPPYLAIIAAGIIIGIGSSSLIALRLGEGKTGEALEIMNNAFPLCLIAGAVFTAGGLIFCRTSISLLGTNGPALSLASEYLHIIFAGSVFMILAIALDPLVRNNGKPRLCMKIMVAGVLANIILDYLLVMHMEMGMSGAATATVLSFVLPAVLLTHHLLSSQAKLRLRIKSMRVKTATALKILNAGVPSFVMQMSFALMLFVQNYMLLRYGSELAVSAYGVIGYIFSIFYMLFEGIALGVQPIIGFNYGAGNYGRVLKTLKLTILSCTLIGALGFTLIYLFPESLVQIFSQRDSELLDATLQGMDIFMFSLLVEGTVLLTAVYYQSINRVRAALFIHLGKIFIFLFPLLFILPHFFDLNGVWAASPATEYLMAAVVMVMLSKEFDFLRNSRKVEIKQPVTLKITSEVTSKHETSASRNTVKTGNEECTGFIPFKHTEREAS”: “failed”; for “MISNFIKRAITGILFVAILVGCILYNSFSFGILFMAISALTIYEFGQLINSRAEGVNVNKTIIMLGGAYLFLAVMGFCIDAADSKIFIPYLLLLLYLMISELYLKKASSMLNWAYSMLSQLYIGLPFALLNVLAFHTDPEYSSVSYNPILPLSIFIFLWLSDTGAYCVGSLIGKHRLFERISPKKSWEGSIGGGVVAIGASFVLAHYFTIMSMWEWAGLALVVVVFGTWGDLTESLLKRQLHVKDSGTILPGHGGMLDRFDSALMAIPAAVFYLYALTWF”: “failed”.
The same measure for “MISNKRRPKIKIWNKEQMALYLKAIKKDRLYAAFVTDSKSGLRKSELLALRWSDIDFSTGLTKIERGWVRSPKGTLYLSDLKSENSERTLVFSTDLLKVLLEHKSRQDEEKKTAGKNYIDNGLVFCREDGSYINPSTFTRRHYDLTAKAKLPRISVHALRHSISTALLESGKVDLKQIQEMLGHKDISTTGNYYTDVLERMKQKTSELIDNLIQTELEHHHHHH”: “failed”.
The same measure for “MISNNTRRVYRISFSFFEQYCLEHNLQSLPADPRSIISFIGHQKELLQASTGMQLSKQTLTTRIAAIRFYHIQAGFPTPTEHPQVIRVMRGLSRNHHRLVQDYDQQPLEHHHHHH”: “failed”.
